Tests used:
Conditions in all cases: glycan lost; control: wild-type CD133
[1] = surface flow cytometry, HEK293T and HepG2
[2] = immunofluorescence with ER dye, HEK293T
[3] = FLAG IP, PY828 blot, HEK293T with Src
[4] = anti-CD133 western blot, HEK293T lysates

B1: CD133 (prominin-1): N548Q (protein)
parent chain: MALVLGSLLLLGLCGNSFSGGQPSSTDAPKAWNYELPATNYETQDSHKAGPIGILFELVHIFLYVVQPRDFPEDTLRKFLQKAYESKIDYDKPETVILGLKIVYYEAGIILCCVLGLLFIILMPLVGYFFCMCRCCNKCGGEMHQRQKENGPFLRKCFAISLLVICIIISIGIFYGFVANHQVRTRIKRSRKLADSNFKDLRTLLNETPEQIKYILAQYNTTKDKAFTDLNSINSVLGGGILDRLRPNIIPVLDEIKSMATAIKETKEALENMNSTLKSLHQQSTQLSSSLTSVKTSLRSSLNDPLCLVHPSSETCNSIRLSLSQLNSNPELRQLPPVDAELDNVNNVLRTDLDGLVQQGYQSLNDIPDRVQRQTTTVVAGIKRVLNSIGSDIDNVTQRLPIQDILSAFSVYVNNTESYIHRNLPTLEEYDSYWWLGGLVICSLLTLIVIFYYLGLLCGVCGYDRHATPTTRGCVSNTGGVFLMVGVGLSFLFCWILMIIVVLTFVFGANVEKLICEPYTSKELFRVLDTPYLLNEDWEYYLSGKLFNKSKMKLTFEQVYSDCKKNRGTYGTLHLQNSFNISEHLNINEHTGSISSELESLKVNLNIFLLGAAGRKNLQDFAACGIDRMNYDSYLAQTGKSPAGVNLLSFAYDLEAKANSLPPGNLRNSLKRDAQTIKTIHQQRVLPIEQSLSTLYQSVKILQRTGNGLLERVTRILASLDFAQNFITNNTSSVIIEETKKYGRTIIGYFEHYLQWIEFSISEKVASCKPVATALDTAVDVFLCSYIIDPLNLFWFGIGKATVFLLPALIFAVKLAKYYRRMDSEDVYDDVETIPMKNMENGNNGYHKDHVYGIHNPVMTSPSQH
no change: localisation_or_trafficking [1] | localisation_or_trafficking [2] | other: Y828 phosphorylation [3] | expression_or_secretion [4]

B2: CD133 (prominin-1): N729Q (protein)
parent chain: B1 parent chain
no change: localisation_or_trafficking [1] | localisation_or_trafficking [2] | expression_or_secretion [4]

B3: CD133 (prominin-1): N730Q (protein)
parent chain: B1 parent chain
no change: localisation_or_trafficking [1] | localisation_or_trafficking [2] | expression_or_secretion [4]

— PMC4653032
